These results are taken from PMC3193277.

The data set deals with 6xHis-p53 (UniProt P04637 1-393). Nature of the data set: EMSA.
Sequence of 6xHis-p53 (P04637 whole entry): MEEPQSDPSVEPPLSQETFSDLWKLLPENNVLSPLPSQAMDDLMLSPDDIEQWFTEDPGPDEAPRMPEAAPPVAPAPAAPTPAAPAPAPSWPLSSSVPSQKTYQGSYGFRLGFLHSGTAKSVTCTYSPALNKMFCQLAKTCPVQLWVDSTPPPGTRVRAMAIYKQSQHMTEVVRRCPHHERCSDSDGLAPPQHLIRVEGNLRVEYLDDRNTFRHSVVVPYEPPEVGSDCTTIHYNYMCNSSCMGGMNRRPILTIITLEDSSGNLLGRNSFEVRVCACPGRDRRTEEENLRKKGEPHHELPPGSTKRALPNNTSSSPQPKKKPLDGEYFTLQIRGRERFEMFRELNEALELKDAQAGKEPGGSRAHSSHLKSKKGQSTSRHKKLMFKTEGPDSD

B1: GADD45 probe (intron 3 p53RE) (dsDNA)
DNA 1: GTAGCTGATATCGAATTCTCGAGCAGAACATGTCTAAGCATGCTGGGCTCGAGAATTCCTGCAGCC
DNA 2: GGCTGCAGGAATTCTCGAGCCCAGCATGCTTAGACATGTTCTGCTCGAGAATTCGATATCAGCTAC
For the molecule B1, the binding result is recorded as “binds”.
